Measured values: the supplement of paper PMC10724198
± gives the standard deviation of the averaged measurements.

These sequences were tested on Saccharomyces cerevisiae (assay: protein stability index of tFT-peptide fusion (C-terminal peptide) (PSI (0-1 scale)); higher = more stable (slower turnover)). Settings: genetic background: wild type; temperature: 30 C.
Protocol: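 MPS profiling in S. cerevisiae of the tFT-X12 degron library: putative degron peptides plus stable controls, 12 aa, fused to the C-terminus of a sfGFP-mCherry timer. Cells are FACS-sorted into 8 mCherry/sfGFP bins and deep-sequenced. PSI runs from 0 (unstable) to 1 (stable). Backgrounds are wild type, das1Δ and doa10Δ at 30 °C, and wild type, das1Δ, cdc34-1 and cdc53-1 at 37 °C; 2-3 technical replicates each.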
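Note: PSI is a weighted mean of sequencing reads over stability bins, variants kept only with over 10 reads, mCherry proximal and sfGFP distal, peptide attached via GGGS linker.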

Sequence | protein stability index
AAVQVCVLLLLL | 0.337 ± 0.017
ACSRKPIWVTWL | 0.276 ± 0.058
AFLLVLFCCVSC | 0.225 ± 0.023
AFLWSLFVFFRF | 0.269 ± 0.042
AFVVPLFLCCCG | 0.209 ± 0.014
AFYLCLYFMPVS | 0.367 ± 0.029
AGAFRIVWWALR | 0.578 ± 0.015
ALFLLWVVMHDV | 0.219 ± 0.035
ALLWEFVPCSVR | 0.375 ± 0.022
ALRGLWFPFSCL | 0.193 ± 0.028
ALRLPPPPFSLY | 0.237 ± 0.036
ALSGLARFIVCH | 0.243 ± 0.031
ALVGEVLWFQLV | 0.357 ± 0.034
APLLPPALALTC | 0.407 ± 0.028
APPSFPPLLLLS | 0.286 ± 0.017
AQCRGGGLSGVG | 0.562 ± 0.011
ARGVAAAFVSGF | 0.653 ± 0.0078
ARRGHNCAAVFL | 0.663 ± 0.024
ARTWVVLLICGH | 0.328 ± 0.019
ASWRYMFPVTLG | 0.306 ± 0.039
AVCVVVMAVFVG | 0.3 ± 0.012
CASVCCFFAWIV | 0.323 ± 0.0068
CCVFFLLCLSLF | 0.313 ± 0.0084
CFFGFRAGLFLG | 0.155 ± 0.0076
CFFVSLFFYIDC | 0.203 ± 0.042

Sequence | protein stability index
CFGSALLKCWLC | 0.303 ± 0.032
CFLSWSLRFFIL | 0.118 ± 0.0054
CFVRCFVSIRLF | 0.0716 ± 0.026
CGGLFDVALGVG | 0.468 ± 0.023
CGGVQVWRVKVV | 0.221 ± 0.018
CGSFWVNVLCAV | 0.299 ± 0.034
CILYLSWIIFRA | 0.174 ± 0.028
CLCLICFLCWFA | 0.384 ± 0.038
CLLDVVMVVERG | 0.347 ± 0.016
CPMFVKFFFCLY | 0.41 ± 0.021
CRGLSWRMITCL | 0.14 ± 0.015
CRLRYSILWFRL | 0.124 ± 0.017
CRRQLKVLKSMS | 0.151 ± 0.03
CSFHFSLFFLRV | 0.332 ± 0.014
CSRVVGLFFLVV | 0.413 ± 0.033
CVCLWCFLVWAR | 0.246 ± 0.027
CVCPFCVWVSCL | 0.263 ± 0.032
CVSFFRCLFLIV | 0.144 ± 0.013
CWYVCSFWPYVV | 0.089 ± 0.027
DAGSSYRFFRFI | 0.344 ± 0.01
DFFTSFSLFFFL | 0.636 ± 0.018
DLIGSVRRLFCV | 0.214 ± 0.0082
DLLKAILKIKSL | 0.0962 ± 0.017
DLQTVGLTRFIV | 0.193 ± 0.0044
DLRRYRTLIPCK | 0.275 ± 0.048

Sequence | protein stability index
DPKQVRIQSSWL | 0.663 ± 0.018
DVLLVVVLGRFL | 0.312 ± 0.027
DVPLFLPLPVSV | 0.297 ± 0.021
ELDVRPMVFLVA | 0.337 ± 0.027
ESRDRRVGIANW | 0.647 ± 0.011
FACLTPFCLCLT | 0.349 ± 0.013
FALFCFVIFMSR | 0.227 ± 0.068
FAVTRVHLACWG | 0.369 ± 0.03
GFLGMFFFWFAL | 0.473 ± 0.022
GGGGMGRRVGVG | 0.398 ± 0.011
LCLPLYIRILSF | 0.129 ± 0.016
LPPTPPLSPPPH | 0.433 ± 0.014
LSPRPPAPYYSP | 0.662 ± 0.028
PSPHRAPPGGHP | 0.688 ± 0.04
RKKIRTYINENV | 0.334 ± 0.04
RPPPTPRSVLLN | 0.286 ± 0.024
SVPCWVFLFCLA | 0.227 ± 0.025
TWGGGRVSLGGG | 0.364 ± 0.017
VCNSIPLTPPPA | 0.641 ± 0.026
VSGITLPFLMFH | 0.329 ± 0.063
VSGSFRVCFRVW | 0.517 ± 0.012
VWWWGGVGWLMV | 0.412 ± 0.019
YVLLDFFFFFLV | 0.182 ± 0.06

Same assay, conditions: genetic background: wild type; temperature: 37 C

Sequence | protein stability index
AAVQVCVLLLLL | 0.497 ± 0.014
ACSRKPIWVTWL | 0.51 ± 0.031
AFLLVLFCCVSC | 0.303 ± 0.01
AFLWSLFVFFRF | 0.363 ± 0.018
AFVVPLFLCCCG | 0.235 ± 0.0042
AFYLCLYFMPVS | 0.52 ± 0.0093
AGAFRIVWWALR | 0.68 ± 0.014
ALFLLWVVMHDV | 0.397 ± 0.022
ALLWEFVPCSVR | 0.5347 ± 0.0023
ALRGLWFPFSCL | 0.283 ± 0.01
ALRLPPPPFSLY | 0.461 ± 0.023
ALSGLARFIVCH | 0.392 ± 0.016
ALVGEVLWFQLV | 0.586 ± 0.029
APLLPPALALTC | 0.484 ± 0.02
APPSFPPLLLLS | 0.499 ± 0.034
AQCRGGGLSGVG | 0.603 ± 0.02
ARGVAAAFVSGF | 0.725 ± 0.03
ARRGHNCAAVFL | 0.718 ± 0.0074
ARTWVVLLICGH | 0.531 ± 0.045
ASWRYMFPVTLG | 0.4618 ± 0.0041
AVCVVVMAVFVG | 0.397 ± 0.021
CASVCCFFAWIV | 0.4749 ± 0.00052
CCVFFLLCLSLF | 0.4223 ± 0.0038
CFFGFRAGLFLG | 0.247 ± 0.072
CFFVSLFFYIDC | 0.35 ± 0.0022

Sequence | protein stability index
CFGSALLKCWLC | 0.44 ± 0.0044
CFLSWSLRFFIL | 0.139 ± 0.013
CFVRCFVSIRLF | 0.146 ± 0.015
CGGLFDVALGVG | 0.516 ± 0.0067
CGGVQVWRVKVV | 0.401 ± 0.0066
CGSFWVNVLCAV | 0.444 ± 0.0067
CILYLSWIIFRA | 0.334 ± 0.068
CLCLICFLCWFA | 0.4958 ± 0.0039
CLLDVVMVVERG | 0.392 ± 0.0043
CPMFVKFFFCLY | 0.481 ± 0.0055
CRGLSWRMITCL | 0.176 ± 0.02
CRLRYSILWFRL | 0.155 ± 0.006
CRRQLKVLKSMS | 0.31 ± 0.013
CSFHFSLFFLRV | 0.422 ± 0.0073
CSRVVGLFFLVV | 0.604 ± 0.016
CVCLWCFLVWAR | 0.436 ± 0.017
CVCPFCVWVSCL | 0.4205 ± 0.0029
CVSFFRCLFLIV | 0.194 ± 0.017
CWYVCSFWPYVV | 0.0762 ± 0.016
DAGSSYRFFRFI | 0.578 ± 0.0081
DFFTSFSLFFFL | 0.701 ± 0.008
DLIGSVRRLFCV | 0.303 ± 0.0047
DLLKAILKIKSL | 0.162 ± 0.049
DLQTVGLTRFIV | 0.353 ± 0.031
DLRRYRTLIPCK | 0.481 ± 0.038

Sequence | protein stability index
DPKQVRIQSSWL | 0.6863 ± 0.0034
DVLLVVVLGRFL | 0.535 ± 0.0089
DVPLFLPLPVSV | 0.3903 ± 0.0012
ELDVRPMVFLVA | 0.457 ± 0.011
ESRDRRVGIANW | 0.713 ± 0.014
FACLTPFCLCLT | 0.51106 ± 0.0004
FALFCFVIFMSR | 0.381 ± 0.063
FAVTRVHLACWG | 0.466 ± 0.022
GFLGMFFFWFAL | 0.579 ± 0.018
GGGGMGRRVGVG | 0.415 ± 0.0084
LCLPLYIRILSF | 0.126 ± 0.013
LPPTPPLSPPPH | 0.5864 ± 0.005
LSPRPPAPYYSP | 0.7271 ± 0.0069
PSPHRAPPGGHP | 0.701 ± 0.0029
RKKIRTYINENV | 0.568 ± 0.015
RPPPTPRSVLLN | 0.506 ± 0.011
SVPCWVFLFCLA | 0.4033 ± 0.0033
TWGGGRVSLGGG | 0.407 ± 0.028
VCNSIPLTPPPA | 0.703 ± 0.033
VSGITLPFLMFH | 0.426 ± 0.0043
VSGSFRVCFRVW | 0.5981 ± 0.004
VWWWGGVGWLMV | 0.544 ± 0.012
YVLLDFFFFFLV | 0.255 ± 0.032
